# Data as given in patent US20220195446.
# How the values were obtained:
# [1] = tested on: ZnFng-WUS1 ATF (synthetic construct); test: cell_activity; conditions: endogenous WUS2 mRNA by RT-PCR relative to Act1 in corn protoplasts; range 8-12%; mock nearly zero; binding inferred from activation
# [2] = tested on: ZnFng-WUS2 ATF (synthetic construct); test: cell_activity; conditions: endogenous WUS2 mRNA by RT-PCR relative to Act1 in corn protoplasts; range 15-60%; mock nearly zero; binding inferred from activation
# Chain of ZnFng-WUS2 ATF (synthetic construct) (chain, as listed by the source): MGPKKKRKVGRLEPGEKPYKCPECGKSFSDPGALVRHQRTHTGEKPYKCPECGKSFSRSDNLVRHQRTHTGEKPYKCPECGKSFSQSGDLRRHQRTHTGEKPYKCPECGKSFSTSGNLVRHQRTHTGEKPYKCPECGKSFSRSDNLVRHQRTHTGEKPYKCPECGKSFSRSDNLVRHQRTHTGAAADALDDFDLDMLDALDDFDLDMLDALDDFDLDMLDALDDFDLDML
# Chain of ZnFng-WUS1 ATF (synthetic construct) (chain, as listed by the source): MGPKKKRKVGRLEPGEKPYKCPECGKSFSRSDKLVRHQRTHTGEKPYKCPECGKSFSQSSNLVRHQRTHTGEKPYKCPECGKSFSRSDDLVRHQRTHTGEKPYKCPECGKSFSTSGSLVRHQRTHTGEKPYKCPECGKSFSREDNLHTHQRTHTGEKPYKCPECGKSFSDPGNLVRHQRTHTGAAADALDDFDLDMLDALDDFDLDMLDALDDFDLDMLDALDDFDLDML
Sequence,activity [1],activity [2]
GACTAGGTTGCGGAAGGG (double strand) [ZnFng-WUS1 binding site in maize WUS2 promoter],10 % of actin,
GAGGAGGATGCAGAGGTC (double strand),,50 % of actin
